The text below walks through data of PMC6613885 (Autophagy, 2019).

Usually Kd stands for the equilibrium constant for the complex coming apart.

Ends that are not written are not given here.

T1: biotin-labeled 16-mer PIK3C3 S2E LIR peptide (human, also: biotin label, place not given here)
T1 chain: SEPILTEFELVKVPDP

T2: biotin-labeled 16-mer BECN1 S2E LIR peptide (human, also: biotin label, place not given here)
T2 chain: STEEANEFTLIGEASD

B1: ATG14 428-445 18-mer array peptide, W435Y (peptide)
peptide: ETDLGTDYENLPSPRFCD
notes: ATG14, human, amino acids 428-445; source: synthetic peptide, SPOT synthesis on cellulose membrane
B2: BECN1 89-106 18-mer array peptide, F97W (peptide)
peptide: MSTESANSWTLIGEASDG
notes: BECN1, human, amino acids 89-106; source: synthetic peptide, SPOT synthesis on cellulose membrane
B3: BECN1 89-106 18-mer array peptide, T98C (peptide)
peptide: MSTESANSFCLIGEASDG
notes: as for B2
B4: PIK3C3 242-259 18-mer array peptide, F250W (peptide)
peptide: ESSPILTSWELVKVPDPQ
notes: PIK3C3, human, amino acids 242-259; source: synthetic peptide, SPOT synthesis on cellulose membrane
B5: BECN1 89-106 18-mer array peptide, S96W (peptide)
peptide: MSTESANWFTLIGEASDG
notes: as for B2
B6: PIK3C3 242-259 18-mer array peptide, E251V (peptide)
peptide: ESSPILTSFVLVKVPDPQ
notes: as for B4
B7: PIK3C3 242-259 18-mer array peptide, L252W (peptide)
peptide: ESSPILTSFEWVKVPDPQ
notes: as for B4
B8: PIK3C3 242-259 18-mer array peptide, L252V (peptide)
peptide: ESSPILTSFEVVKVPDPQ
notes: as for B4
B9: BECN1 89-106 18-mer array peptide, T98E (peptide)
peptide: MSTESANSFELIGEASDG
notes: as for B2
B10: BECN1 89-106 18-mer array peptide, T98V (peptide)
peptide: MSTESANSFVLIGEASDG
notes: as for B2
B11: ATG14 428-445 18-mer array peptide, D434E (peptide)
peptide: ETDLGTEWENLPSPRFCD
notes: as for B1
B12: BECN1 89-106 18-mer array peptide, G101E (peptide)
peptide: MSTESANSFTLIEEASDG
notes: as for B2
B13: BECN1 89-106 18-mer array peptide, S96C (peptide)
peptide: MSTESANCFTLIGEASDG
notes: as for B2
B14: ATG14 428-445 18-mer array peptide, W435F (peptide)
peptide: ETDLGTDFENLPSPRFCD
notes: as for B1
B15: ATG14 428-445 18-mer array peptide, E436I (peptide)
peptide: ETDLGTDWINLPSPRFCD
notes: as for B1
B16: PIK3C3 242-259 18-mer array peptide, E251F (peptide)
peptide: ESSPILTSFFLVKVPDPQ
notes: as for B4
B17: BECN1 89-106 18-mer array peptide, L99I (peptide)
peptide: MSTESANSFTIIGEASDG
notes: as for B2
B18: BECN1 89-106 18-mer array peptide, G101D (peptide)
peptide: MSTESANSFTLIDEASDG
notes: as for B2
B19: BECN1 89-106 18-mer array peptide, L99W (peptide)
peptide: MSTESANSFTWIGEASDG
notes: as for B2
B20: BECN1 89-106 18-mer array peptide, S96A (peptide)
peptide: MSTESANAFTLIGEASDG
notes: as for B2
B21: PIK3C3 242-259 18-mer array peptide, L252F (peptide)
peptide: ESSPILTSFEFVKVPDPQ
notes: as for B4
B22: BECN1 89-106 18-mer array peptide, S96D (peptide)
peptide: MSTESANDFTLIGEASDG
notes: as for B2
B23: PIK3C3 242-259 18-mer array peptide, wild type (peptide)
peptide: ESSPILTSFELVKVPDPQ
notes: PIK3C3, human, amino acids 242-259; also called PIK3C3 LIR; source: synthetic peptide, SPOT synthesis on cellulose membrane
B24: PIK3C3 242-259 18-mer array peptide, L252I (peptide)
peptide: ESSPILTSFEIVKVPDPQ
notes: as for B4
B25: ATG14 428-445 18-mer array peptide, E436V (peptide)
peptide: ETDLGTDWVNLPSPRFCD
notes: as for B1
B26: BECN1 89-106 18-mer array peptide, L99F (peptide)
peptide: MSTESANSFTFIGEASDG
notes: as for B2
B27: BECN1 89-106 18-mer array peptide, wild type (peptide)
peptide: MSTESANSFTLIGEASDG
notes: BECN1, human, amino acids 89-106; also called BECN1 LIR; source: synthetic peptide, SPOT synthesis on cellulose membrane
B28: BECN1 89-106 18-mer array peptide, I100L (peptide)
peptide: MSTESANSFTLLGEASDG
notes: as for B2
B29: BECN1 89-106 18-mer array peptide, G101P (peptide)
peptide: MSTESANSFTLIPEASDG
notes: as for B2
B30: PIK3C3 242-259 18-mer array peptide, E251I (peptide)
peptide: ESSPILTSFILVKVPDPQ
notes: as for B4
B31: BECN1 89-106 18-mer array peptide, T98I (peptide)
peptide: MSTESANSFILIGEASDG
notes: as for B2
B32: BECN1 89-106 18-mer array peptide, S96E (peptide)
peptide: MSTESANEFTLIGEASDG
notes: as for B2
B33: ATG14 428-445 18-mer array peptide, L438F (peptide)
peptide: ETDLGTDWENFPSPRFCD
notes: as for B1
B34: PIK3C3 242-259 18-mer array peptide, V253I (peptide)
peptide: ESSPILTSFELIKVPDPQ
notes: as for B4
B35: PIK3C3 242-259 18-mer array peptide, L252Y (peptide)
peptide: ESSPILTSFEYVKVPDPQ
notes: as for B4
B36: PIK3C3 242-259 18-mer array peptide, E251L (peptide)
peptide: ESSPILTSFLLVKVPDPQ
notes: as for B4
B37: BECN1 89-106 18-mer array peptide, S96T (peptide)
peptide: MSTESANTFTLIGEASDG
notes: as for B2
B38: BECN1 89-106 18-mer array peptide, S96G (peptide)
peptide: MSTESANGFTLIGEASDG
notes: as for B2
B39: ATG14 428-445 18-mer array peptide, wild type (peptide)
peptide: ETDLGTDWENLPSPRFCD
notes: ATG14, human, amino acids 428-445; also called ATG14 LIR; source: synthetic peptide, SPOT synthesis on cellulose membrane
B40: biotin-labeled 16-mer BECN1 LIR peptide (peptide)
chain: STESANSFTLIGEASD
modifications: also: biotin label, place not given here
B41: biotin-labeled 16-mer PIK3C3 LIR peptide (peptide)
chain: SSPILTSFELVKVPDP
modifications: also: biotin label, place not given here
B42: biotin-labeled 16-mer ATG14 LIR peptide (peptide)
chain: ETDLGTDWENLPSPRF
modifications: also: biotin label, place not given here
B43: recombinant GABARAP (biolayer interferometry) (natural protein, UniProt O95166 1-117, looked up)
chain: MKFVYKEEHPFEKRRSEGEKIRKKYPDRVPVIVEKAPKARIGDLDKKKYLVPSDLTVGQFYFLIRKRIHLRAEDALFFFVNNVIPPTSATMGQLYQEHHEEDFFLYIAYSDESVYGL
notes: GABARAP; construct of the BLI experiment not described; source: recombinant
B44: recombinant LC3C (biolayer interferometry) (natural protein, UniProt Q9BXW4 1-126, looked up)
chain: MPPPQKIPSVRPFKQRKSLAIRQEEVAGIRAKFPNKIPVVVERYPRETFLPPLDKTKFLVPQELTMTQFLSIIRSRMVLRATEAFYLLVNNKSLVSMSATMAEIYRDYKDEDGFVYMTYASQETFG
notes: LC3C; construct of the BLI experiment not described; source: recombinant

recombinant GABARAPL1 (biolayer interferometry), sequence (Q9H0R8 whole entry, looked up): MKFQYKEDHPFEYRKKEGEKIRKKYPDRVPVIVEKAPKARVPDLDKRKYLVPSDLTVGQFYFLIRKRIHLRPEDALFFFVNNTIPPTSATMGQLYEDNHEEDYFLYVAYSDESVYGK

The first test has as its target T3, GST-GABARAPL1 (UniProt Q9H0R8 1-117).
T3 construct: GABARAPL1 (GABA type A receptor associated protein like 1); also called pDest15 (GST)-GABARAPL1; source: E. coli SoluBL21, purified on glutathione-Sepharose 4 Fast Flow beads
As to the kind of experiment: peptide or protein array; two-dimensional scan: 18-mer peptides on cellulose membrane, each position replaced with all 20 amino acids; probed with 1 µg/ml GST-GABARAPL1 for 2 h; anti-GST antibody. Particulars: both partners purified.
With B1, the binding result is “binds”.

On to B2, for which the binding result is listed as “binds”.

For the molecule B3, the binding result is “binds”.

Take B4: the binding result is listed as “binds”.

Take B5: the binding result is reported as “binds”.

As to B6, the binding result is “binds”.

B7: the binding result is on record as “binds”.

B8: the binding result is on record as “binds”.

On to B9, for which the binding result is “binds”.

With B10, the binding result is listed as “binds”.

Turning to B11, the binding result is listed as “binds”.

Turning to B12, the binding result is given as “binds”.

In the case of B13, the binding result was “binds”.

For B14, the binding result is “binds”.

On to B15, for which the binding result is recorded as “binds”.

As for B16, the binding result is recorded as “binds”.

For the molecule B17, the binding result is “binds”.

In the case of B18, the binding result is on record as “binds”.

On to B19, for which the binding result was “binds”.

Consider B20, for which the binding result is listed as “binds”.

Turning to B21, the binding result is listed as “binds”.

With B22, the binding result is listed as “binds”.

Consider B23, for which the binding result is reported as “binds”.

As to B24, the binding result is reported as “binds”.

Regarding B25, the binding result is recorded as “binds”.

In the case of B26, the binding result is listed as “binds”.

Regarding B27, the binding result is “binds”.

In the case of B28, the binding result is “binds”.

Take B29: the binding result was “binds”.

Regarding B30, the binding result is “binds”.

Regarding B31, the binding result is reported as “binds”.

For B32, the binding result was “binds”.

Turning to B33, the binding result is “binds”.

As for B34, the binding result was “binds”.

Turning to B35, the binding result was “binds”.

Regarding B36, the binding result is recorded as “binds”.

Take B37: the binding result was “binds”.

As to B38, the binding result is on record as “binds”.

For the molecule B39, the binding result is “binds”.

Another test concerns the target recombinant GABARAPL1 (biolayer interferometry) (UniProt Q9H0R8 1-117). As to the kind of experiment: BLI; biotin-LIR peptides (50 µg/ml) on streptavidin biosensors, Atg8-family protein in solution at different concentrations; Octet Red 96; 25°C; global fit, 1:1 model. Particulars: both partners purified. A general note: In BLI a coated tip is dipped into the sample, and binding shifts an interference pattern.
For the molecule B40, the Kd stood at 7.95 µM.

Take B41: the dissociation constant Kd was determined as 65 µM.

In the case of B42, the Kd came out at 1.9 µM.

The target in a further test is B44. The description is as above. Particulars: both partners purified.
Consider B42, for which the Kd stood at 5.85 µM.

For a further test, the target named is T1, biotin-labeled 16-mer PIK3C3 S2E LIR …. The description is as above. Particulars: both partners purified.
Regarding B43, the “fold increase in binding over the wild-type LIR peptide” value is 17 fold.

For B44, the “fold increase in binding over the wild-type LIR peptide” value amounted to 15 fold.

The target of the next test is B43. The test is described as above. Particulars: both partners purified.
In the case of B40, the Kd was determined as 10.5 µM.

As to B41, the dissociation constant (Kd) was found to be 49.5 µM.

For B42, the dissociation constant Kd amounted to 2.85 µM.

In a further test the target is T2, biotin-labeled 16-mer BECN1 S2E LIR …. Described as above. Particulars: both partners purified.
Take B43: the “fold increase in binding affinity over the wild-type LIR peptide” value came to 3 fold.

Turning to B44, the “fold increase in binding affinity over the wild-type LIR peptide” value is 8 fold.
